The text below walks through data of the supplement of paper PMC9170038.

The subject of this data set is MS2 coat protein. Description: apparent KD of MS2 coat protein; designed switch direction (-1 OFF switch, 1 ON switch): -1; higher = weaker reporter binding. Summed up:
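Three titration conditions were used: no input, 200 uM small-molecule ligand, and an oligonucleotide input. In each, SNAP-549-labelled MS2 coat protein was raised from 0.7 or 1.5 nM, doubling, to 3 µM over designed RNA switches transcribed on Illumina chips by stalled E. coli RNA polymerase. Curve fits of normalised cluster fluorescence gave values whose per-design median over clusters is the apparent KD.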

[1] abbreviates: Eterna round: R95, input ligand: microRNA oligo, concentration not stated.
Where [2] appears, read: input ligand: microRNA oligo, concentration not stated.
[3] abbreviates: Eterna round: R95, input ligand: FMN 200 uM.
Setting [4] is: Eterna round: R95, input ligand: none.

“GAUUAGACUAAGGAUAUUACGAGCUCUGUGCCGUGAGAAGGUAGCACAUGAGGAUCACCCAUGUGACCAUCAUG [Eternabot (L2) Solution 81] (Eterna round: R97, puzzle: Exclusion 6)”: the “apparent KD of MS2 coat protein” value reads like this: (input ligand: FMN 200 uM) 180 nM; (input ligand: none) 58.6 nM.

On to “CUUUUGUGAGGAUAUCAGUAGUAAUAAUAUAAAAUUACUACUGAGAAGGCACAUGAGGAUCACCCAUGUUCCUC [salish99_ex3_r3_102] (puzzle: Exclusion 4)”, for which, under setting [1], the “apparent KD of MS2 coat protein” value came to 36.3 nM.

For the sequence “GACCCACAUGAGGAUCACCCAUGUGAGGAUAUCAUGCUUCGUAGUAAACUACGAAGUGUGAGAAGGCACAAUGG [Omei Ex1 C7] (Eterna round: R97, puzzle: Exclusion 1)”, the “apparent KD of MS2 coat protein” value was 134 nM (input ligand: FMN 200 uM) and 37.4 nM (input ligand: none).

Turning to “AAAAAAAAGUGAGGAUAUGGAAAUUUGGUGAUAACAUGAGGAUCACCCAUGUGAAAACAAUAAAAUUAGAAGGUAUAAAAAAAA [AK ExNG2-1] (Eterna round: R96, puzzle: Exclusion NG 2)”, the “apparent KD of MS2 coat protein” value is, setting by setting: (input ligand: FMN 200 uM) 122 nM; under setting [2], 73.1 nM; (input ligand: none) 98.8 nM.

As to “AAGAAACAUGAGGAUCACCCAUGUCAGGAUAUCUCGAAAAGCAUAGAAAUAUGCGAAGAGAGAAGGGACUGCCC [ChP Ext 10-04-2015 #2] (puzzle: Exclusion 1)”, the “apparent KD of MS2 coat protein” value runs as follows: under setting [3], 20.8 nM; under setting [1], 19.3 nM; under setting [4], 19.2 nM.

In the case of “AGUUGGCGAGGAUAUACAUGAGGAUCACCCAUGUGAAGAAGAAUAGUGAGGAAGAAAAGUAGAAGGCGCUGACA [Mat - Exclusion 3 - Mod of Salish D37] (Eterna round: R96, puzzle: Exclusion 3)”, the “apparent KD of MS2 coat protein” value runs as follows: (input ligand: FMN 200 uM) 412 nM; under setting [2], 33.6 nM; (input ligand: none) 48.5 nM.

As to “GGUGGACAUGAGGAUCACCCAUGUGAGGAUAUCGGCUGGCUAGCGGCGGAUGGCUUCUCGAGAAGGCGCAUAGU [Exclusion 1 V81] (puzzle: Exclusion 1)”, the “apparent KD of MS2 coat protein” value under setting [1] is 62.7 nM.

With “GUGUAGAUAGGAUAUGCUGGAAUCUAGCGAAGCUAGGUUCUACAUGAGGAUCACCCAUGUAGAAGGGUCUACAC [Dot plot directed A v12] (puzzle: Exclusion 2)”, under setting [1], the “apparent KD of MS2 coat protein” value amounted to 28.5 nM.

For the sequence “GACAUACAUGAGGAUCACCCAUGUAAGGAUAUACGCAGUAGACUCCGAGGGACCUGAAGUAGAAGGUACAGGGU [Eternabot (L2) Solution 72] (Eterna round: R97, puzzle: Exclusion 1)”, the “apparent KD of MS2 coat protein” value amounted to 103 nM (input ligand: FMN 200 uM) and 34.5 nM (input ligand: none).

Turning to “CGCACGUAAGGAUAUACAUGAGGAUCACCCAUGUGUAAAUACUGCAACGUGGUGAAUAGUAGAAGGUACGAUGC [Eternabot (L2) Solution 56] (Eterna round: R97, puzzle: Exclusion 3)”, the “apparent KD of MS2 coat protein” value was 55.5 nM (input ligand: FMN 200 uM) and 18.3 nM (input ligand: none).

For “CCCUCAAGCGAGGAUAUAAAUGCGCAUUCGCGGUUAGAAGGCGCUACAUGAGGAUCACCCAUGUAAUUAAAUGG [jl-ex6-4.51 ViennaUCT mod] (Eterna round: R97, puzzle: Exclusion 6)”, the “apparent KD of MS2 coat protein” value (input ligand: FMN 200 uM) is 128 nM and the “apparent KD of MS2 coat protein” value (input ligand: none) is 52.6 nM.

With “GGAUUUCCUGAGGAUAUUGCAUCACCCGAUUUAUAAGAAGGCAGAACAUGAGGAUCACCCAUGUGGGUCUCCAG [Bingo-Bango-24] (Eterna round: R97, puzzle: Exclusion 6)”, the “apparent KD of MS2 coat protein” value (input ligand: FMN 200 uM) worked out at 22.9 nM and the “apparent KD of MS2 coat protein” value (input ligand: none) turned out to be 17.9 nM.

Take “UAUUAGCAAGCGAGAUCCCACAUGAGGAUCACCCAUGUGCUCGUCUUAUAAGGUACUGUGACGAAAGUCACGGUACC [Sensor 3, v1 - 91] (puzzle: Sensor v3, turn-off variant 1)”: the “apparent KD of MS2 coat protein” value is, setting by setting: under setting [3], 12.6 nM; under setting [1], 441 nM; under setting [4], 10.8 nM.

“UUUUUGUGAGGAUAUCAGUAGUAAAAAAAUAAAAUUACUACUGAGAAGGCACAUGAGGAUCACCCAUGUUUUUC [salish99_ex4_r3_014] (puzzle: Exclusion 4)”: the “apparent KD of MS2 coat protein” value under setting [1] stood at 35.6 nM.

Consider “UAUAUAUAGUAAGGAUAUGUAUUUAAUUUAUAAACAGAAGGUACUGACAUGAGGAUCACCCAUGUUUUAGUGUGGGCAUGUAGA [JMF's solution 13] (Eterna round: R96, puzzle: Exclusion NG 1)”, for which, under setting [2], the “apparent KD of MS2 coat protein” value was found to be 80.8 nM.

As to “CUAGCGAGUGUAGGAUAUCGGACUGUUUCAGUCUGAGAAGGACAUGAGGAUCACCCAUGUGAAGCUACGUGAGUAGCACGCUAG [JL ENG1 3.87] (Eterna round: R96, puzzle: Exclusion NG 1)”, the “apparent KD of MS2 coat protein” value stood at 74.5 nM (input ligand: FMN 200 uM), 18.3 nM under setting [2] and 24.5 nM (input ligand: none).

Turning to “UGCGGGCUUUUGAGACCUCACAUGAGGAUCACCCAUGUGCUCGUCUUAUGGGCCGGCCGGCCGUUGGCCGGCCGGCC [-44, -68.1 kcal, A 12%] (Eterna round: R97, puzzle: Sensor, turn-off variant 1)”, the “apparent KD of MS2 coat protein” value stood at 70.2 nM (input ligand: FMN 200 uM) and 67.8 nM (input ligand: none).

Consider “GAAAGCUUUGAGCUCGAUCACAUGAGGAUCACCCAUGUGGGAGCCAGGCGACGGCAUUCUGCGAGGGCGACUUUUGG [Eternabot (L2) Solution 42] (Eterna round: R97, puzzle: Sensor, turn-off variant 1)”, for which the “apparent KD of MS2 coat protein” value (input ligand: FMN 200 uM) worked out at 17.8 nM and the “apparent KD of MS2 coat protein” value (input ligand: none) was 15.4 nM.

Turning to “UGCAUGCUAGGAUAUACGAAACAUUAGGGUUCUUCGUAUGAACAUGAGGAUCACCCAUGUAGAAGGAGCGUGCU [Mod9 of JL-ex2-2.15 mat747 mod] (puzzle: Exclusion 2)”, under setting [1], the “apparent KD of MS2 coat protein” value came to 31.1 nM.

Regarding “GUAGAGUAAGGAUAUAGUGAAUAGGAUAGAAUGGUUAGAAACUAGAAGGUACAUGAGGAUCACCCAUGUAAUGU [Excluse me!!!! 21 - Jieux - Exclusion 4] (puzzle: Exclusion 4)”, the “apparent KD of MS2 coat protein” value under setting [1] is 20.4 nM.

With “GUGUAACAUGAGGAUCACCCAUGUCAGGAUAUGCGAAUUUCAUCAAAAGAUGAAAUUUGCAGAAGGGACUGUAC [Omei Ex1 A24] (Eterna round: R97, puzzle: Exclusion 1)”, the “apparent KD of MS2 coat protein” value reads like this: (input ligand: FMN 200 uM) 99.2 nM; (input ligand: none) 60.9 nM.

For the sequence “AAUAAACAUGAGGAUCACCCAUGUGAGGAUAUACAGAUUAUAAGAAAAAAAAAAAAAAGUAGAAGGCACAUAUA [Default title] (Eterna round: R96, puzzle: Exclusion 1)”, the “apparent KD of MS2 coat protein” value by setting is: (input ligand: FMN 200 uM) 39.6 nM; under setting [2], 29.9 nM; (input ligand: none) 37.6 nM.

Regarding “CCUCUACAUGAGGAUCACCCAUGUGAGGAUAUGUUGACGAGCCUGAAAAGGCUGGUCAACAGAAGGCAUAUGUA [Exclusion 1 (Mod 2 solution 16 by Eternabot)] (Eterna round: R97, puzzle: Exclusion 1)”, the “apparent KD of MS2 coat protein” value reads like this: (input ligand: FMN 200 uM) 40.3 nM; (input ligand: none) 18.9 nM.

As to “GCGUGUGCCUAGGAUAUUGGGAAUAUGCAGAAACGAGAAGGAGGCACAUGAGGAUCACCCAUGUGAUGAAAAGA [Teesedri] (puzzle: Exclusion 6)”, the “apparent KD of MS2 coat protein” value was determined as 16.7 nM under setting [3], 45.6 nM under setting [1] and 61.7 nM under setting [4].

For the sequence “CGGCAUGUAGAAGGAUAUCUGCACGAUUAGUGCAGAGAAGGUCUAACAUGAGGAUCACCCAUGUAGAUCAUUAACCGAUUAAUU [ENG1/8-A1] (Eterna round: R96, puzzle: Exclusion NG 1)”, the “apparent KD of MS2 coat protein” value by setting is: (input ligand: FMN 200 uM) 21.9 nM; under setting [2], 10.7 nM; (input ligand: none) 12 nM.

As for “AGGGAGUCAGGAUAUUAUUUUUAGCGGGAUAACGCUGAGGGUGAGAAGGGACAUGAGGAUCACCCAUGUUUUGA [JR_Ex4_Sub075] (Eterna round: R97, puzzle: Exclusion 4)”, the “apparent KD of MS2 coat protein” value worked out at 167 nM (input ligand: FMN 200 uM) and 183 nM (input ligand: none).

Consider “UCAUGUAUGUAGGAUAUCGAUGUCUUCGGACAUCGAGAAGGACGUACAUGAGGAUCACCCAUGUAACUUGCAUG [Exclusion 6 - B - 11:b] (puzzle: Exclusion 6)”, for which the “apparent KD of MS2 coat protein” value under setting [1] worked out at 14.8 nM.

Take “UUUGUUUAUGUAGGAUAUGCCUGGCGUGCCUUUGCAGAAGGACAUGAGGAUCACCCAUGUAUUGCGGUCUGCGUUCAGAUCGCU [salish99_ExNG1_r4_037] (Eterna round: R96, puzzle: Exclusion NG 1)”: the “apparent KD of MS2 coat protein” value (input ligand: FMN 200 uM) was found to be 37.1 nM, the “apparent KD of MS2 coat protein” value under setting [2] was determined as 26.8 nM and the “apparent KD of MS2 coat protein” value (input ligand: none) amounted to 34.8 nM.

On to “UUGUCUAAUGUGAGGAUAUGCUGGUCCAUAGAUCAGCAGAAGGCACAUGAGGAUCACCCAUGUGAUAACACAAU (Eterna round: R97, puzzle: Brourd's mod of Exclusion 4)”, for which the “apparent KD of MS2 coat protein” value by setting is: (input ligand: FMN 200 uM) 296 nM; (input ligand: none) 21.3 nM.

For the sequence “AAUAACAAGCUGAUCCUUCACAUGAGGAUCACCCAUGUGCUCGUCUUGUAAAGUACUAUCACGAAAGUGAUAGUACA (Eterna round: R97, puzzle: Sensor, turn-off variant 1)”, the “apparent KD of MS2 coat protein” value (input ligand: FMN 200 uM) was determined as 127 nM and the “apparent KD of MS2 coat protein” value (input ligand: none) is 125 nM.

“AGAUAGUGCUGAGGAUAUCUGAAUAGAAAGAAAAGAGAAGGCGGACAUGAGGAUCACCCAUGUGAGGUCUUGAGACUACAUGGU [Prohibition 37 - Jieux - Exclusion NG 1] (Eterna round: R96, puzzle: Exclusion NG 1)”: the “apparent KD of MS2 coat protein” value runs as follows: (input ligand: FMN 200 uM) 393 nM; under setting [2], 42.9 nM; (input ligand: none) 80.4 nM.

For the sequence “GGUGGACAUGAGGAUCACCCAUGUGAGGAUAUCGGCUGGCUAGUGGCGGAUGGCUUCUCGAGAAGGCGCAUAGU [Exclusion 1 V80] (puzzle: Exclusion 1)”, under setting [1], the “apparent KD of MS2 coat protein” value was 50.2 nM.
